The target in this assay is T1, PHD finger of human UHRF1 (residues 299–366) (human, UniProt Q96T88 299-366).
T1 construct: UHRF1, human, PHD finger, residues 299–366; also called hPHD; UHRF1 PHD finger; source: recombinant, purified (glutathione Sepharose 4B, HiTrap Q HP, Superdex75); not shown: GST, N-terminal, cleaved; SUMO-1, N-terminal, cleaved
T1 sequence (looked up): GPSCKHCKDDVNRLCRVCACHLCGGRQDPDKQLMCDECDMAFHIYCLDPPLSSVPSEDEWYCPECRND
Nature of the assay: ITC; hPHD and PAF15_(2-11) or H3 peptides; VP-ITC; 10 mM HEPES-NaOH (pH 7.5), 150 mM NaCl, 0.25 mM TCEP; one-site model. To be noted: both partners purified.

B1: N-terminal histone H3 peptide (peptide)
chain: ARTKQTARKST
modifications: Unmodified free N-terminus assumed (initiator Met removed). Peptide limits are not printed in the supplied text (ITC in Supplementary Fig. 2d). Mature H3 residues 1-11 taken by convention from UHRF1 …
In turn, B1 registered an equilibrium dissociation constant (Kd) of 1500 ± 100 nM.

B2: human PAF15 (residues 2–11) peptide (peptide, UniProt Q15004 2-11, looked up)
peptide: VRTKADSVPG
notes: PCNA-associated factor 15 (PAF15), human, residues 2–11; begins with 2VRTK5; also called hPAF15_(2-11); PAF15_(2-11); source: synthetic peptide (Toray Research Center)
Take B2: the equilibrium dissociation constant (Kd) stood at 2200 ± 300 nM.

B3: hPAF15_(2-11)-K5A peptide (peptide, UniProt Q15004 2-11, looked up)
peptide: VRTAADSVPG
notes: PCNA-associated factor 15 (PAF15), human, residues 2–11; also called PAF15 K5A
B3: the binding result is reported as “binds”.

Values taken from publication PMC7060239, “Two distinct modes of DNMT1 recruitment ensure stable maintenance DNA methylation” (Nature Communications, 2020).
